In publication PMC8993412:

Tests used:
[1] = target: SARS-CoV-2 Nsp15 (recombinant) (SARS-CoV-2) (UniProt P0DTD1); experiment: ELISA
[2] = target: SARS-CoV-2 Nsp7 (recombinant) (SARS-CoV-2) (UniProt P0DTD1); experiment: ELISA

B1: IgG 16684 (anti-Nsp15) (antibody, V domains shown)
VH: EVQLVESGGGLVQPGGSLRLSCAASGFNFSSSSIHWVRQAPGKGLEWVASIYSSYGYTYYADSVKGRFTISADTSKNTAYLQMNSLRAEDTAVYYCARVSYYYPYSWYFYGYYGGLDYWGQGTLVTVSS
VL: DIQMTQSPSSLSASVGDRVTITCRASQSVSSAVAWYQQKPGKAPKLLIYSASSLYSGVPSRFSGSRSGTDFTLTISSLQPEDFATYYCQQSSYSLITFGQGTKVEIK
EC50 [1]: 19 nM

B2: IgG 16658 (anti-Nsp7) (antibody, V domains shown)
VH: EVQLVESGGGLVQPGGSLRLSCAASGFNLSYYSIHWVRQAPGKGLEWVASIYPYYSYTYYADSVKGRFTISADTSKNTAYLQMNSLRAEDTAVYYCARVGFDYWGQGTLVTVSS
VL: DIQMTQSPSSLSASVGDRVTITCRASQSVSSAVAWYQQKPGKAPKLLIYSASSLYSGVPSRFSGSRSGTDFTLTISSLQPEDFATYYCQQYAGLITFGQGTKVEIK
EC50 [2]: 130 nM
